The conditions of the series: Homo sapiens; pH 2.7; Thermal; DSC; glycine 0.05 M; reversible: yes; whole UniProt chain shown.

In general, Tm refers to the temperature at the midpoint of the melting transition.

B1: Lysozyme C wild type, P61626 (protein)
chain: MKALIVLGLVLLSVTVQGKVFERCELARTLKRLGMDGYRGISLANWMCLAKWESGYNTRATNYNAGDRSTDYGIFQINSRYWCNDGKTPGAVNACHLSCSALLQDNIADAVACAKRVVRDPQGIRAWVAWRNRCQNRDVRQYVQGCGV
B1: the Tm is 64.9 °C, the “heat capacity change of unfolding” value is 1.58 kcal/mol/K, the “unfolding enthalpy (calorimetric)” value is 114 kcal/mol and the “unfolding enthalpy (van 't Hoff)” value turned out to be 120 kcal/mol.

The record behind these values is FireProtDB (doi:10.1006/jmbi.1995.0599).
